Assay: In vitro BrM permeation assay, Ussing chamber
Assay type: in vitro ADME, porcine
Details: 0.1 mg/ml, up to 72 h, in words
Procedure: Porcine Bruch's membrane samples are used for this measurement. Porcine eyes are collected from the slaughterhouse) no more than 6 hours after the animals were sacrificed and stored at 4° C. until use (on same day).
Preparation of enriched Bruch's Membrane (BrM): The eyes are placed into a disposable petri-dish and any residual tissue surrounding the eyeball is removed. The eyeball is incised next to the iris with a scalpel and the front part of the eye as well as lens, vitreous and retinal tissue are removed from the eyecup. […]
Sampling and membrane integrity analysis: For sampling at different timepoints (4 h, 24 h, 48 h and 72 h) the solution in the single compartments is mixed by carefully pipetting up and down and 90 μl were transferred separately from each sample and diffusate chamber to collection tubes. […] Accumulation of blue particles in the second compartment is observed and camera pictures are recorded to control for overall membrane integrity.
Sample analysis: 15 μl of each solution from the sample and diffusate chambers are effectively loaded on 2 precast polyacrylamide gels (NuPAGE Bis-Tris gels) together with a similar amount of stored mastermix as loading control. The first gel is analyzed by standard SDS-PAGE and Coomassie-based staining methods for protein detection (anti-C3 scFv). […]
Evaluation: Pictures of the SDS-gels are analyzed using ImageJ2 software (Fiji). […]

## Gly-I-[CV-Trp(Me)-QDWGAHRC]-T-NH2 [Compound A2]
  Diffusion/penetration through porcine Bruch's membrane: No penetration

Reference: US12344663B2, “Anti-C3 antibodies and antigen-binding fragments thereof and their uses for treating eye or ocular diseases” (CDR-Life AG, priority 2021, dated 2025)
